According to US20230047179A1 (SYDDANSK UNIVERSITET, published 2023):

T1: recombinant human MFAP4 with RGD integrin binding motif mutated to AAA (human, UniProt P55083 22-255)
T1 construct: mature; also called human MFAP4 RGD-AAA mutation
T1 sequence (looked up): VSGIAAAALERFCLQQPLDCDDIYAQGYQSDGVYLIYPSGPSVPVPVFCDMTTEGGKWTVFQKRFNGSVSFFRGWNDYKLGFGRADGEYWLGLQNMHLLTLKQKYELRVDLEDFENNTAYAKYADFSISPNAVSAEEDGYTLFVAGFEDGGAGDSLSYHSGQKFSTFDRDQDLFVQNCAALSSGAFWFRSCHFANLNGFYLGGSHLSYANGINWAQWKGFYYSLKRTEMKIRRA

T2: recombinant human MFAP4 (human, UniProt P55083 22-255)
T2 construct: mature; also called rhMFAP4; hrMFAP4
T2 sequence (looked up): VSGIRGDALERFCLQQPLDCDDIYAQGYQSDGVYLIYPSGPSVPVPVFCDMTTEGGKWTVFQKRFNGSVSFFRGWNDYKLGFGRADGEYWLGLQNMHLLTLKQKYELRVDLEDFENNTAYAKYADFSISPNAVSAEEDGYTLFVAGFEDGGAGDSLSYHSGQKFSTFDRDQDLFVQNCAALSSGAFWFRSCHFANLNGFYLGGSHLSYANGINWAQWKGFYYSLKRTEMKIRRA

T3: recombinant mouse MFAP4 (mouse, UniProt Q9D1H9 23-257)
T3 construct: mature; The expression plasmid is pcDNA5/FRT/V5-His TOPO TA; also called murine MFAP4; mouse serum MFAP4
T3 sequence (looked up): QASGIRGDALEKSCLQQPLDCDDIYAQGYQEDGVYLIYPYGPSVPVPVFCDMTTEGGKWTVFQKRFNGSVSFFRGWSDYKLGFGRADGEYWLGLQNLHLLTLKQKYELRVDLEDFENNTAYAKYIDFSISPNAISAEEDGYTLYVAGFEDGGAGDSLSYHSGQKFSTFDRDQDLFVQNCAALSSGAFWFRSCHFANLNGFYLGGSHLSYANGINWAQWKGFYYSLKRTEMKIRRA


How the values were obtained:
[1] = molecular target: T1, recombinant human MFAP4 with RGD …; assay: direct ELISA, biotinylated antibody on coated recombinant human MFAP4 with RGD mutated to AAA, streptavidin-HRP
Procedure: (§1) 96-well plates (Nunc-MaxiSorp) (Nunc™) were coated with 0.5 μg recombinant mouse MFAP4, recombinant human MFAP4 and recombinant human MFAP4 with the RGD-sequence mutated to AAA in PBS O.N at 4° C. Coating was followed by washing and then blocking in TBS/Tw O.N at 4° C. Blocking was followed by addition of biotinylated antibodies diluted 2-fold from an initial concentration of 100 ng/ml. The plates were then incubated for 2 hours at R.T. The plates were washed three times in TBS/Tw and incubated for 20 minutes with Strepavidin Horseradish Peroxidase (HRP) conjugate (Invitrogen) diluted 1:2000 in TBS/Tw. After final three washes, the amount of bound enzyme was estimated by adding OPD (0.8 mg/ml, Kementec, Taastrup, Denmark) dissolved in substrate buffer (0.03% freshly prepared H₂O₂) and allowed to react for 15 minutes in the dark at RT. Colour development was stopped by the addition of 100 μl 1 M H₂SO₄, and the plates were read at OD₄₉₂ nm with OD₆₀₀ nm as reference.

recombinant human MFAP4 [2] = molecular target: T2, recombinant human MFAP4; assay: competition ELISA on immobilized recombinant human MFAP4; competitor: biotinylated HG HYB 7-5 at 0.5 µg/ml
Procedure: (§2) Biotinylated A) HG HYB 7-5 (biotinHYB7-5), B) hAS0326 ([…]) and C) mAS0326 (bmAS0326) at a fixed concentration of 0.5 μg/ml were mixed with unlabelled IgG isotype control, HG HYB 7-18 (HYB7-18), HG HYB 7-5 (HYB7-5), hAS0326 and mAS0326 in a 2-fold dilution from 20 μg/ml. […] Only HG Hyb 7-5 was capable of inhibiting the HG HYB 7-5 interaction with target. In contrast, mAS0326 was capable of inhibiting hAS0326 binding to target and vice versa.
(§3) 96-well plates (Nunc-MaxiSorp) were coated with 0.5 μg recombinant human MFAP4 in PBS O.N at 4° C. followed by washing and then blocking in TBS/Tw O.N at 4° C. Biotinylated Mab (0.5 μg/ml) and unlabeled MAbs (diluted 2-fold from 20 μg/ml to 156 ng/ml) were premixed in a separate microtiterplate in TBS/Tw and then added to the MFAP4 coated microtiter plate. The plates were following incubated for 2 hours at R.T. The plates were washed three times in TBS/Tw and incubated for 20 min with Strepavidin Horseradish Peroxidase (HRP) conjugate (Invitrogen) diluted 1:2000 in TBS/Tw. […] Colour development was stopped by the addition of 100 μl 1 M H₂SO₄, and the plates were read at OD₄₉₂ nm with OD₆₀₀ nm as reference.

recombinant mouse MFAP4 = molecular target: T3, recombinant mouse MFAP4; assay: direct ELISA, biotinylated antibody on coated recombinant mouse MFAP4, streptavidin-HRP
Procedure: as §1

recombinant human MFAP4 [3] = molecular target: T2, recombinant human MFAP4; assay: competition ELISA on immobilized recombinant human MFAP4; competitor: biotinylated mAS0326 at 0.5 µg/ml
Procedure: as §2, §3

recombinant human MFAP4 [4] = molecular target: T2, recombinant human MFAP4; assay: competition ELISA on immobilized recombinant human MFAP4; competitor: biotinylated hAS0326 at 0.5 µg/ml
Procedure: as §2, §3

recombinant human MFAP4 [5] = molecular target: T2, recombinant human MFAP4; assay: SPR, Biacore T200

binding result [1]	IC50 (read off the curve) (recombinant human MFAP4 [2]) [µg/mL]	binding result (recombinant mouse MFAP4)	IC50 (read off the curve) (recombinant human MFAP4 [3]) [µg/mL]	IC50 (read off the curve) (recombinant human MFAP4 [4]) [µg/mL]	Kd (recombinant human MFAP4 [5]) [nM]	Binder
no binding (tested: 100 ng/ml)	~0.8	no binding (tested: 100 ng/ml)	–	–	–	HG HYB 7-5 (antibody, V domains shown, also called biotinHYB7-5) VH: EVQLQQSGPELVKPGASVKLSCKTSGYTFTSYDMNWVKQRPGQGLEWIGWIFPRDGSTKFNEKFKGKATLTVDTSSTTAYMELHSLTSEDSAVYFCARAEIFFDYGFDYWGQGTTLTVSS VL: DIVMTQSTALMAASPGEKVTITCSVSSSISSSNLHWYQQKSETSPKSWIYGTSNLASGVPGRFSGSGSGTSYSLTISSVEAEDAATYYCQQWSSYPLTFGGGTKLEIK
–	–	binds	~0.9	~0.9	0.14	mAS0326 (antibody, V domains shown, Murine hybridoma monoclonal antibody raised against human recombinant MFAP4; also called biotinmAS0326; bmAS0326) VH: QVQLQQPGADLVKPGTSVKLSCKASGFTFTSYWMHWVKQRPGQGLEWIGVIHPNSGNTKYNEKFRSEATLTVDKSSNTAYIQLSSLTSEDSAVYYCAREMWNYGNSWYFDVWGTGTTVTVSS VL: DVQIIQSPSYLAASPGETITINCRASKSISKYLAWYQERPGKTNKLLIYSGSTLQSGIPSRFSGSGSGTDFTLTISSLEPEDFAMYYCQQHNEYPFTFGAGTKLELK
–	–	–	–	–	0.504	Chimeric antibody (mAS0326 with human Fc, CHO expression) (antibody, V domains shown) VH: QVQLQQPGADLVKPGTSVKLSCKASGFTFTSYWMHWVKQRPGQGLEWIGVIHPNSGNTKYNEKFRSEATLTVDKSSNTAYIQLSSLTSEDSAVYYCAREMWNYGNSWYFDVWGTGTTVTVSS VL: DVQIIQSPSYLAASPGETITINCRASKSISKYLAWYQERPGKTNKLLIYSGSTLQSGIPSRFSGSGSGTDFTLTISSLEPEDFAMYYCQQHNEYPFTFGAGTKLELK
